Reference: US20170306030A1

Target: EGF receptor (UniProt P00533)
Experiment: cell-based or functional assay

Row | specificity of IFNα signaling, Daudi-EGFR against parental Daudi cells | Substance | inhibition of proliferation and survival of Daudi-EGFR cells (WST-1), potency against the corresponding IFNα2a mutant alone
1 | > 20 fold | IFNα-2a (R149A) - (Gly4Ser)7 - EGF chimeric activator (from UniProt P01563 24-188; P01133 23-1207) | 
2 |  | IFNα-2a (R144A) - (Gly4Ser)7 - EGF chimeric activator (from UniProt P01563 24-188; P01133 23-1207) | 100 fold
